Measured values as given in patent US20260116944A1, “NOVEL TRIPLE GLP-1/GIP/GLUCAGON RECEPTOR AGONIST AND A PHARMACEUTICAL COMPOSITION FOR PREVENTING OR TREATING OBESITY COMPRISING THE SAME” (HANMI PHARM. CO., LTD., priority 2022, published 2026).
*1 amine or outer side, *2 acyl side, *3 side chain or, on linkers, in order; H or OH if unused. Bridges are numbered along the chain shown (N, C = ends). Where no end group is shown, it is not given here. Side-chain parts run from the residue outwards. [ ]: non-standard residue; d: D form. The star is where a group is joined. C20 diacid = O=C(O)CCCCCCCCCCCCCCCCCCC(=O)*; γGlu = O=C(O)[C@H](CCC(=O)[*:2])N[*:1]; AEEA = NCCOCCOCC(=O)O; Aib = CC(C)(N)C(=O)O

T1: human GIP receptor (human, UniProt P48546 22-466)
T1 sequence (looked up): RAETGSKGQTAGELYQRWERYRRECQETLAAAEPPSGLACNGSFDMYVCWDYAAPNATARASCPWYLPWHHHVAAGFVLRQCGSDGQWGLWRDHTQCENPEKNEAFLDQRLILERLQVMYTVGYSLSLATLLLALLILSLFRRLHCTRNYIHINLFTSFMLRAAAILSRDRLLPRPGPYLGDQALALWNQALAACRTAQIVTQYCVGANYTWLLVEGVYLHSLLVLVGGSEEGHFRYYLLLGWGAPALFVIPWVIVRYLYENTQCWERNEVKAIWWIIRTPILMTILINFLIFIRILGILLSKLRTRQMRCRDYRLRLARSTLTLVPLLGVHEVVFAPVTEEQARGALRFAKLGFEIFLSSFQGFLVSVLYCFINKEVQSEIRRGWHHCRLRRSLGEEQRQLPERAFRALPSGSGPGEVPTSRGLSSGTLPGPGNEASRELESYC

B1: triple agonist of SEQ ID NO: 4 (peptide)
peptide: Y[Aib]QGTFTSDYSK([AEEA-AEEA-γGlu-C20 diacid])YLDEKRAKDFVQWLLDHHPSSGQPPPS-NH2
modifications: lactam 16-20; N-terminus assumed
SMILES: CC(C)C[C@H](NC(=O)[C@H](Cc1ccc(O)cc1)NC(=O)[C@H](CCCCNC(=O)COCCOCCNC(=O)COCCOCCNC(=O)CC[C@H](NC(=O)CCCCCCCCCCCCCCCCCCC(=O)O)C(=O)O)NC(=O)[C@H](CO)NC(=O)[C@H](Cc1ccc(O)cc1)NC(=O)[C@H](CC(=O)O)NC(=O)[C@H](CO)NC(=O)[C@@H](NC(=O)[C@H](Cc1ccccc1)NC(=O)[C@@H](NC(=O)CNC(=O)[C@H](CCC(N)=O)NC(=O)C(C)(C)NC(=O)[C@@H](N)Cc1ccc(O)cc1)[C@@H](C)O)[C@@H](C)O)C(=O)N[C@@H](CC(=O)O)C(=O)N[C@H]1CCC(=O)NCCCC[C@@H](C(=O)N[C@@H](CC(=O)O)C(=O)N[C@@H](Cc2ccccc2)C(=O)N[C@H](C(=O)N[C@@H](CCC(N)=O)C(=O)N[C@@H](Cc2c[nH]c3ccccc23)C(=O)N[C@@H](CC(C)C)C(=O)N[C@@H](CC(C)C)C(=O)N[C@@H](CC(=O)O)C(=O)N[C@@H](Cc2c[nH]cn2)C(=O)N[C@@H](Cc2c[nH]cn2)C(=O)N2CCC[C@H]2C(=O)N[C@@H](CO)C(=O)N[C@@H](CO)C(=O)NCC(=O)N[C@@H](CCC(N)=O)C(=O)N2CCC[C@H]2C(=O)N2CCC[C@H]2C(=O)N2CCC[C@H]2C(=O)N[C@@H](CO)C(N)=O)C(C)C)NC(=O)[C@H](C)NC(=O)[C@H](CCCNC(=N)N)NC(=O)[C@H](CCCCN)NC1=O
B2: triple agonist of SEQ ID NO: 6 (peptide)
peptide: H[Aib]HGTFTSDYSK([AEEA-AEEA-γGlu-C20 diacid])YLDEKAAKDFVQWLLDQHPSSGQPPPS-NH2
modifications: lactam 16-20; N-terminus assumed
SMILES: CC(C)C[C@H](NC(=O)[C@H](Cc1ccc(O)cc1)NC(=O)[C@H](CCCCNC(=O)COCCOCCNC(=O)COCCOCCNC(=O)CC[C@H](NC(=O)CCCCCCCCCCCCCCCCCCC(=O)O)C(=O)O)NC(=O)[C@H](CO)NC(=O)[C@H](Cc1ccc(O)cc1)NC(=O)[C@H](CC(=O)O)NC(=O)[C@H](CO)NC(=O)[C@@H](NC(=O)[C@H](Cc1ccccc1)NC(=O)[C@@H](NC(=O)CNC(=O)[C@H](Cc1c[nH]cn1)NC(=O)C(C)(C)NC(=O)[C@@H](N)Cc1c[nH]cn1)[C@@H](C)O)[C@@H](C)O)C(=O)N[C@@H](CC(=O)O)C(=O)N[C@H]1CCC(=O)NCCCC[C@@H](C(=O)N[C@@H](CC(=O)O)C(=O)N[C@@H](Cc2ccccc2)C(=O)N[C@H](C(=O)N[C@@H](CCC(N)=O)C(=O)N[C@@H](Cc2c[nH]c3ccccc23)C(=O)N[C@@H](CC(C)C)C(=O)N[C@@H](CC(C)C)C(=O)N[C@@H](CC(=O)O)C(=O)N[C@@H](CCC(N)=O)C(=O)N[C@@H](Cc2c[nH]cn2)C(=O)N2CCC[C@H]2C(=O)N[C@@H](CO)C(=O)N[C@@H](CO)C(=O)NCC(=O)N[C@@H](CCC(N)=O)C(=O)N2CCC[C@H]2C(=O)N2CCC[C@H]2C(=O)N2CCC[C@H]2C(=O)N[C@@H](CO)C(N)=O)C(C)C)NC(=O)[C@H](C)NC(=O)[C@H](C)NC(=O)[C@H](CCCCN)NC1=O
B3: triple agonist of SEQ ID NO: 5 (peptide)
peptide: Y[Aib]QGTFTSDYSK([AEEA-AEEA-γGlu-C20 diacid])ALDEKRAKEFVQWLLDQHPSSGQPPPS-NH2
modifications: lactam 16-20; N-terminus assumed
SMILES: CC(C)C[C@H](NC(=O)[C@H](C)NC(=O)[C@H](CCCCNC(=O)COCCOCCNC(=O)COCCOCCNC(=O)CC[C@H](NC(=O)CCCCCCCCCCCCCCCCCCC(=O)O)C(=O)O)NC(=O)[C@H](CO)NC(=O)[C@H](Cc1ccc(O)cc1)NC(=O)[C@H](CC(=O)O)NC(=O)[C@H](CO)NC(=O)[C@@H](NC(=O)[C@H](Cc1ccccc1)NC(=O)[C@@H](NC(=O)CNC(=O)[C@H](CCC(N)=O)NC(=O)C(C)(C)NC(=O)[C@@H](N)Cc1ccc(O)cc1)[C@@H](C)O)[C@@H](C)O)C(=O)N[C@@H](CC(=O)O)C(=O)N[C@H]1CCC(=O)NCCCC[C@@H](C(=O)N[C@@H](CCC(=O)O)C(=O)N[C@@H](Cc2ccccc2)C(=O)N[C@H](C(=O)N[C@@H](CCC(N)=O)C(=O)N[C@@H](Cc2c[nH]c3ccccc23)C(=O)N[C@@H](CC(C)C)C(=O)N[C@@H](CC(C)C)C(=O)N[C@@H](CC(=O)O)C(=O)N[C@@H](CCC(N)=O)C(=O)N[C@@H](Cc2c[nH]cn2)C(=O)N2CCC[C@H]2C(=O)N[C@@H](CO)C(=O)N[C@@H](CO)C(=O)NCC(=O)N[C@@H](CCC(N)=O)C(=O)N2CCC[C@H]2C(=O)N2CCC[C@H]2C(=O)N2CCC[C@H]2C(=O)N[C@@H](CO)C(N)=O)C(C)C)NC(=O)[C@H](C)NC(=O)[C@H](CCCNC(=N)N)NC(=O)[C@H](CCCCN)NC1=O
B4: triple agonist of SEQ ID NO: 7 (peptide)
peptide: Y[Aib]QGTFTSDYSK([AEEA-AEEA-γGlu-C20 diacid])YLDEKRAKDFVQWLLDQHPSSGQPPPS-NH2
modifications: lactam 16-20; N-terminus assumed
SMILES: CC(C)C[C@H](NC(=O)[C@H](Cc1ccc(O)cc1)NC(=O)[C@H](CCCCNC(=O)COCCOCCNC(=O)COCCOCCNC(=O)CC[C@H](NC(=O)CCCCCCCCCCCCCCCCCCC(=O)O)C(=O)O)NC(=O)[C@H](CO)NC(=O)[C@H](Cc1ccc(O)cc1)NC(=O)[C@H](CC(=O)O)NC(=O)[C@H](CO)NC(=O)[C@@H](NC(=O)[C@H](Cc1ccccc1)NC(=O)[C@@H](NC(=O)CNC(=O)[C@H](CCC(N)=O)NC(=O)C(C)(C)NC(=O)[C@@H](N)Cc1ccc(O)cc1)[C@@H](C)O)[C@@H](C)O)C(=O)N[C@@H](CC(=O)O)C(=O)N[C@H]1CCC(=O)NCCCC[C@@H](C(=O)N[C@@H](CC(=O)O)C(=O)N[C@@H](Cc2ccccc2)C(=O)N[C@H](C(=O)N[C@@H](CCC(N)=O)C(=O)N[C@@H](Cc2c[nH]c3ccccc23)C(=O)N[C@@H](CC(C)C)C(=O)N[C@@H](CC(C)C)C(=O)N[C@@H](CC(=O)O)C(=O)N[C@@H](CCC(N)=O)C(=O)N[C@@H](Cc2c[nH]cn2)C(=O)N2CCC[C@H]2C(=O)N[C@@H](CO)C(=O)N[C@@H](CO)C(=O)NCC(=O)N[C@@H](CCC(N)=O)C(=O)N2CCC[C@H]2C(=O)N2CCC[C@H]2C(=O)N2CCC[C@H]2C(=O)N[C@@H](CO)C(N)=O)C(C)C)NC(=O)[C@H](C)NC(=O)[C@H](CCCNC(=N)N)NC(=O)[C@H](CCCCN)NC1=O
B5: triple agonist of SEQ ID NO: 1 (peptide)
peptide: Y[Aib]QGTFTSDYSK([AEEA-AEEA-γGlu-C20 diacid])YLDEKAAKEFVQWLLDHHPSSGQPPPS-NH2
modifications: lactam 16-20; N-terminus assumed
SMILES: CC(C)C[C@H](NC(=O)[C@H](Cc1ccc(O)cc1)NC(=O)[C@H](CCCCNC(=O)COCCOCCNC(=O)COCCOCCNC(=O)CC[C@H](NC(=O)CCCCCCCCCCCCCCCCCCC(=O)O)C(=O)O)NC(=O)[C@H](CO)NC(=O)[C@H](Cc1ccc(O)cc1)NC(=O)[C@H](CC(=O)O)NC(=O)[C@H](CO)NC(=O)[C@@H](NC(=O)[C@H](Cc1ccccc1)NC(=O)[C@@H](NC(=O)CNC(=O)[C@H](CCC(N)=O)NC(=O)C(C)(C)NC(=O)[C@@H](N)Cc1ccc(O)cc1)[C@@H](C)O)[C@@H](C)O)C(=O)N[C@@H](CC(=O)O)C(=O)N[C@H]1CCC(=O)NCCCC[C@@H](C(=O)N[C@@H](CCC(=O)O)C(=O)N[C@@H](Cc2ccccc2)C(=O)N[C@H](C(=O)N[C@@H](CCC(N)=O)C(=O)N[C@@H](Cc2c[nH]c3ccccc23)C(=O)N[C@@H](CC(C)C)C(=O)N[C@@H](CC(C)C)C(=O)N[C@@H](CC(=O)O)C(=O)N[C@@H](Cc2c[nH]cn2)C(=O)N[C@@H](Cc2c[nH]cn2)C(=O)N2CCC[C@H]2C(=O)N[C@@H](CO)C(=O)N[C@@H](CO)C(=O)NCC(=O)N[C@@H](CCC(N)=O)C(=O)N2CCC[C@H]2C(=O)N2CCC[C@H]2C(=O)N2CCC[C@H]2C(=O)N[C@@H](CO)C(N)=O)C(C)C)NC(=O)[C@H](C)NC(=O)[C@H](C)NC(=O)[C@H](CCCCN)NC1=O

Tests used:
Assay in all cases: cell-based or functional assay
human GCG receptor = human GCG receptor (human, UniProt P47871 26-477)
human GCG receptor, sequence (P47871 26-477): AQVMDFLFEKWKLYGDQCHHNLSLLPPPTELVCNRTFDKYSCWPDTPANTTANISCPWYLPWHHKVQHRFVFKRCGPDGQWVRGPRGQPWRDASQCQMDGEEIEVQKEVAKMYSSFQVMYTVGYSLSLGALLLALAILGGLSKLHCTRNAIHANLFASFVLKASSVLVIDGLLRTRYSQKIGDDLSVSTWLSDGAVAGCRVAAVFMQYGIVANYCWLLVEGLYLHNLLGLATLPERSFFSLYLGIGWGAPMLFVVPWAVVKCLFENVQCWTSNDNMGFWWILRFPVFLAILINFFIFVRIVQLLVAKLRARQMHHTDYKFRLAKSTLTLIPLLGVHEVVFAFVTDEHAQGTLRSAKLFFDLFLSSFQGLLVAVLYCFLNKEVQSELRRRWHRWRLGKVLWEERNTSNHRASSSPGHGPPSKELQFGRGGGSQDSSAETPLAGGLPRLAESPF

human GLP-1 receptor = human GLP-1 receptor (human, UniProt P43220 24-463)
human GIP receptor = molecular target: T1, human GIP receptor

Binder	In vitro Activity Compared to Native Peptide (%) vs. Glucagon (relative titer from cAMP EC50) (human GCG receptor)	In vitro Activity Compared to Native Peptide (%) vs. GLP-1 (relative titer from cAMP EC50) (human GLP-1 receptor)	In vitro Activity Compared to Native Peptide (%) vs. GIP (relative titer from cAMP EC50) (human GIP receptor)
B1	2.36 % of human GCG	3.71 % of human GLP-1	3.81 % of human GIP
B2	1.36 % of human GCG	7.94 % of human GLP-1	6.11 % of human GIP
B3	1.51 % of human GCG	2.36 % of human GLP-1	5.29 % of human GIP
B4	3.32 % of human GCG	4.21 % of human GLP-1	5.26 % of human GIP
B5	0.33 % of human GCG	5.88 % of human GLP-1	5.18 % of human GIP
